Assay [1] addresses T1, HLA-A*03:01 (human).
T1 construct: Peptide-receptive MHC class I monomer made by UV cleavage of a UV-sensitive ligand
Kind of assay: UV ligand exchange ELISA; exchange yield grade. The text has this:
(§1) Candidate peptides for T cell based therapies according to the present invention were further tested for their MHC binding capacity (affinity). The individual peptide-MHC complexes were produced by UV-ligand exchange, where a UV-sensitive peptide is cleaved upon UV-irradiation, and exchanged with the peptide of interest as analyzed. Only peptide candidates that can effectively bind and stabilize the peptide-receptive MHC molecules prevent dissociation of the MHC complexes. To determine the yield of the exchange reaction, an ELISA was performed based on the detection of the light chain (β2m) of stabilized MHC complexes. The assay was performed as generally described in Rodenko et al. (Rodenko et al., 2006).
(§2) 96 well MAXISorp plates (NUNC) were coated over night with 2 ug/ml streptavidin in PBS at room temperature, washed 4× and blocked for 1 h at 37° C. in 2% BSA containing blocking buffer. Refolded HLA-A*02:01/MLA-001 monomers served as standards, covering the range of 15-500 ng/ml. Peptide-MHC monomers of the UV-exchange reaction were diluted 100-fold in blocking buffer. Samples were incubated for 1 h at 37° C., washed four times, incubated with 2 ug/ml HRP conjugated anti-β2m for 1 h at 37° C., washed again and detected with TMB solution that is stopped with […]. Absorption was measured at 450 nm. Candidate peptides that show a high exchange yield (preferably higher than 50%, most preferred higher than 75%) are generally preferred for a generation and production of antibodies or fragments thereof, and/or T cell receptors or fragments thereof, as they show sufficient avidity to the MHC molecules and prevent dissociation of the MHC complexes.

In assay [2] the target is T2, HLA-B*07:02 (human).
T2 construct: Peptide-receptive MHC class I monomer made by UV cleavage of a UV-sensitive ligand
Kind of assay: UV ligand exchange ELISA; exchange yield grade.
Excerpt: as §1, §2

As for RVLTGVFTK, the peptide exchange yield in assay [1] was 20 to 50%.

Take HSYSSPSTK: the peptide exchange yield in assay [1] was in the range of 50 to 75%. Same read-out and setting: the figure for RSKEYIRKK is 10 to 20%. Consider SPFSFHHVL, for which the peptide exchange yield in assay [2] lay in the range of 20 to 50%. The same measure, in the same setting: the figure for APRPAGSYL is 50 to 75%. Molecule KTLPAMLGTGK returned a peptide exchange yield in assay [1] of 20 to 50%. ATGAATPKK: the peptide exchange yield in assay [1] lay within 50 to 75%. Regarding SPWLHAPSL, in assay [2], the peptide exchange yield was 20 to 50%.

With SPRVYWLGL, in assay [2], the peptide exchange yield is 50 to 75%. In the case of KARKSAGAAK, the peptide exchange yield in assay [1] lay in the range of 50 to 75%. The same measure, in the same setting: with KAFNQSSTLTK the figure was 50 to 75%. The molecule APAPAEKTPV registered a peptide exchange yield in assay [2] of 50 to 75%. Same read-out and setting: with LPYDSKHQI the figure was 20 to 50%. Regarding LLWHWDTTQSLK, in assay [1], the peptide exchange yield fell in the range of 10 to 20%. The molecule MPLSTIREV showed a peptide exchange yield in assay [2] of 20 to 50%. For the molecule KTSNIVKIK, in assay [1], the peptide exchange yield was 20 to 50%. On the same count and under the same terms, with RTYGFVLTF the figure was 20 to 50%. In turn, RPHIPISKL gave a peptide exchange yield in assay [2] of 20 to 50%. On to QPRLFTMDL, for which, in assay [2], the peptide exchange yield was in the range of 50 to 75%.

Regarding VILESIFLK, in assay [1], the peptide exchange yield was 20 to 50%. On to QPSPARAPAEL, for which the peptide exchange yield in assay [2] lay within 20 to 50%. Consider VVFPFPVNK, for which, in assay [1], the peptide exchange yield is 50 to 75%.

As to ASTTVLALK, in assay [1], the peptide exchange yield is 20 to 50%. Still for that read-out and setting: with KVYDPVSEY the figure was 20 to 50%; with SVYSETSNMDK, 50 to 75%.

As for LPKVQSIQL, in assay [2], the peptide exchange yield was 20 to 50%.

In assay [1], ATKSPAKPK had a peptide exchange yield of 50 to 75%. In turn, SPSLPNITL gave a peptide exchange yield in assay [2] of 50 to 75%.

Turning to SPRSWIQVQI, the peptide exchange yield in assay [2] was 50 to 75%. On to SVLDLSVHK, for which, in assay [1], the peptide exchange yield is 20 to 50%. TTVPHVFSK came in with a peptide exchange yield in assay [1] of 20 to 50%. The molecule MPSSDTTVTF registered a peptide exchange yield in assay [2] of 50 to 75%.

With SPRNLQPQRAAL, the peptide exchange yield in assay [2] fell in the range of 50 to 75%. As for KATGAATPK, in assay [1], the peptide exchange yield lay within 20 to 50%.

Turning to SVAHLLSKY, the peptide exchange yield in assay [1] is 20 to 50%. Still for that read-out and setting: the figure for KLNPQQAPLY is 20 to 50%; for GLLEEALFY it is 20 to 50%. Turning to SPADHRGYASL, the peptide exchange yield in assay [2] was 20 to 50%. In assay [1], RMYSQLKTLQK yielded a peptide exchange yield of 50 to 75%. For the molecule RPFADLLGTAF, the peptide exchange yield in assay [2] was in the range of 50 to 75%. As to SPLGSLARSSL, the peptide exchange yield in assay [2] was more than 75%. In assay [1], KAKAAAKPK returned a peptide exchange yield of 20 to 50%. In turn, RVYNIYIRR yielded a peptide exchange yield in assay [1] of 20 to 50%. The molecule SPKESENAL registered a peptide exchange yield in assay [2] of 20 to 50%. Still for that read-out and setting: the figure for KPMKSVLVV is 50 to 75%. For SVSSSTHFTR, the peptide exchange yield in assay [1] lay in the range of 20 to 50%. Same read-out and setting: with KLMETSMGF the figure was 20 to 50%; with RIKPPGPTAVPK, 50 to 75%; with RIKAPSRNTIQK, 20 to 50%. In turn, SPLSHHSQL showed a peptide exchange yield in assay [2] of 20 to 50%.

VPNLQTVSV displayed a peptide exchange yield in assay [2] of 20 to 50%.

ATYNKQPMYR returned a peptide exchange yield in assay [1] of 50 to 75%. Regarding APSKTSLIM, the peptide exchange yield in assay [2] is 20 to 50%. In turn, RIYDEILQSK had a peptide exchange yield in assay [1] of 20 to 50%. The molecule SVFEGDSIVLK gave a peptide exchange yield in assay [1] of 20 to 50%. Take RPSNKAPLL: in assay [2], the peptide exchange yield was in the range of 50 to 75%. Still for that read-out and setting: the figure for YPGSDRIML is 20 to 50%; for SPSLPSRTL it is 20 to 50%. As for KAKKPAGAAK, the peptide exchange yield in assay [1] lay in the range of 50 to 75%. The same measure, in the same setting: the figure for RVFPSPMRI is 20 to 50%.

Values taken from US20180291083A1 (IMMATICS BIOTECHNOLOGIES, published 2018).
